The record followed here is article PMC12216052 (2025).

Test [1] has as its target T1, ACVR1B (Homo sapiens (Human), UniProt P36896).
T1 chain: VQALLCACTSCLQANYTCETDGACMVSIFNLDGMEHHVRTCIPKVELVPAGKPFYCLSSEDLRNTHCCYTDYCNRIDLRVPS
The test can be described thus: SPR steady state, receptor-Fc on chip, monomer analyte.

The target of test [2] is ACVR2A (Homo sapiens (Human), UniProt P27037). The test is described as above.

The term Kd denotes the concentration at which binding is half-saturated. Low readings indicate higher affinity, high ones lower affinity.

Chain of ACVR2A (P27037 25-118): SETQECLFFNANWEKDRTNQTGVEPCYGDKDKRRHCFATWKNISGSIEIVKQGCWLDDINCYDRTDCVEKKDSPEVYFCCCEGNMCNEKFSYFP

B1: DLK1 (protein)
chain: VANSCTPNPCENDGVCTDIGGDFRCRCPAGFIDKTCSRPVTNCASSPCQNGGTCLQHTQVSYECLCKPEFTGLTCVKK
Take B1: the equilibrium dissociation constant (Kd) in test [1] and in test [2] was above 10 µM throughout.
